Earlier results in publication PMC4072508, “Genome-Wide Prediction and Validation of Peptides That Bind Human Prosurvival Bcl-2 Proteins” (PLoS Computational Biology, 2014).
Like-named read-outs stand apart in the source and are kept apart here.

Molecular target: T1, Mcl-1 (Homo sapiens, UniProt Q07820)
T1 construct: myc-Mcl-1 SPOT array & FP; made in house
Settings: read-out: Binder class, Mcl-1, cited from earlier work
Text: Negative control mutatio ...

[1] = S2 Bim variants, ref Dutta et al. (2013)
[2] = S1 Bim variants, specific binding measured using yeast display, ref Dutta et al. (2010)
[3] = natural BH3 peptides, interactions taken from literature

T1 sequence (Q07820 with tags, fused parts or gaps): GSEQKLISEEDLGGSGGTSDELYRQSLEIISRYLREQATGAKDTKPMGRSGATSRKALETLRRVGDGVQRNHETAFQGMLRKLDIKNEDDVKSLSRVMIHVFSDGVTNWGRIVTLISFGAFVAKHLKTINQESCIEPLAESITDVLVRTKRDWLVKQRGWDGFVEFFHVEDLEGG

Sequence	Kd [2] [µM]	also measured
PEIWLAQYLRRLGDQINAYYARR		Kd [1]: < 1 µM
PEIWMAQVLRRFGDLLNAYYARR		Kd [1]: < 1 µM
PEIWVAQEFGRAGDEFNAYYARR	> 10	
PEIWVAQEFGRNGDEFNAYYARR	> 10	
PEIWVAQEFKRFGDEYNAYYARR	> 10	
PEIWVAQEFKRYGDETNAYYARR	> 10	
PEIWVAQEFQRAGDEYNAYYARR	> 10	
PEIWVAQEFQRNGDEFNAYYARR	> 10	
PEIWVAQEFRRAGDEFNAYYARR	> 10	
PEIWVAQEIDRVGDEINAYYARR	< 1	
PEIWVAQEIERIGDEVNAYYARR	< 1	
RLAEVCAVLLRLGDELEMIRPSV (PGRLAEVCAVLLRLGDELEMIRPSVY) [Bok]		Kd [3]: < 1 µM
WAREIGAQLRRMADDLNAQYERR (EQWAREIGAQLRRMADDLNAQYERRR) [Puma]		Kd [3]: < 1 µM
